The term Kd denotes the concentration at which binding is half-saturated. Higher therefore signals lower affinity.

Data on 17 molecules can be found in patent US20240270866A1 (Alector, published 2024).

The target of test [1] is T1, mouse SIRPA overexpressed on CHO cells (mouse, UniProt P97797 32-513).
T1 construct: also called CHO-muSIRPA
T1 sequence: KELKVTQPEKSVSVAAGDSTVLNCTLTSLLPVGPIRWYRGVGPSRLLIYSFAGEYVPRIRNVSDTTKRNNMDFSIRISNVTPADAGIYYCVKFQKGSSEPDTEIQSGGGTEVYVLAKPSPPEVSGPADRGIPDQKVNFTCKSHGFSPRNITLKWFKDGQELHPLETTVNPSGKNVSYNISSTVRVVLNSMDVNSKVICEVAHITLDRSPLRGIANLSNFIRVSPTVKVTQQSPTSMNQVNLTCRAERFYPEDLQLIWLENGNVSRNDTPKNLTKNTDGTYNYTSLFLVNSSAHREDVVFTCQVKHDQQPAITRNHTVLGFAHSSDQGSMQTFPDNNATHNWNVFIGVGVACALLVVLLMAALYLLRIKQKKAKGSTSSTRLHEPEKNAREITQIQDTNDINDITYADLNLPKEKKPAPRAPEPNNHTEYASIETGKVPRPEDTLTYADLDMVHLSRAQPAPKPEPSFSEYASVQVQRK
Nature of the test: flow, CHO-muSIRPA.

For the next test, the target named is T2, Mouse SIRPA D1 Fc (mouse, UniProt P97797 32-150, limits assumed).
T2 sequence: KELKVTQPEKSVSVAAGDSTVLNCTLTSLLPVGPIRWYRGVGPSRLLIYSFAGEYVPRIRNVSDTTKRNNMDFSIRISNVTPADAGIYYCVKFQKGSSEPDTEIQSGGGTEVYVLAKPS
Put plainly: ForteBio IgG avid. A general note: Biolayer interferometry detects binding as a change in optical thickness at a sensor tip.

The target of another test is Human SIRPb D1 Fc (human, UniProt O00241 30-148, limits assumed). Put plainly: ForteBio IgG avid.
Test [2] deals with T3, human SIRPA overexpressed on CHO cells (human, UniProt P78324 31-504).
T3 construct: also called CHO-huSIRPA
Nature of the test: flow, CHO-huSIRPA.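 Also: Anti-SIRPA antibodies applied at 1 µg/mL for 1 h on ice, binding read by flow cytometry using a PE-labelled secondary antibody.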
Protocol: Initial characterization of anti-SIRPA antibodies of the present disclosure involved determining their ability to bind cell lines overexpressing human or mouse SIRPA. Cells were harvested, plated at 10⁶/ml in a 96 well plate, washed, and incubated in 100 ul PBS containing 1 ug/ml Mab for 1 hour in ice. Cells were then washed twice and incubated in 100 ul PBS containing 5 ug/ml PE-conjugated secondary antibody for 30 minutes in ice. Cells were washed twice in cold PBS and acquired on a BD FACS Canto. Data analysis and calculation of mean fluorescence intensity (MFI) values or % positive cells was performed with FlowJo® (TreeStar) software version 10.0.7.

Test [3] concerns the target T1, mouse SIRPA overexpressed on CHO cells. Put plainly: flow, CHO-muSIRPA. This is another data set of the same source.
Test [4] deals with T4, human SIRPβ1 Fc fusion antigen (human, UniProt O00241 30-371).
T4 construct: not shown: human IgG1 Fc
Nature of the test: ForteBio IgG avid.

The target of test [5] is T5, human SIRPA Fc fusion antigen (human, UniProt P78324 31-373).
T5 construct: heterologous signal peptide; not shown: human IgG1 Fc
Nature of the test: ForteBio IgG avid.

Human SIRPb D1 Fc, sequence (O00241 30-148 limits assumed): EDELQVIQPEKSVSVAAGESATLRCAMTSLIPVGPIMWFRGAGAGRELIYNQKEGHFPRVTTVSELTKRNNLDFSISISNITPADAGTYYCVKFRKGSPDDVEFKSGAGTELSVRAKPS
T4 sequence (O00241 30-371 limits assumed): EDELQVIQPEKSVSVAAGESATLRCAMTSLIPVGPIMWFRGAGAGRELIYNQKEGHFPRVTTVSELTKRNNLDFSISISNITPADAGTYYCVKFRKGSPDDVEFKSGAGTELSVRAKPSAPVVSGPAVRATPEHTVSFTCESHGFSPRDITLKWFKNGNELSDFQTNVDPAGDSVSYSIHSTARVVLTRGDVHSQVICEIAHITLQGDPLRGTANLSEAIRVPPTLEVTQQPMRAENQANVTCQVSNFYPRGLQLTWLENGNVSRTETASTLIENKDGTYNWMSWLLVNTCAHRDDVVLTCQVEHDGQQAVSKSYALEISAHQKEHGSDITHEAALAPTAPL

B1: SA-57 (antibody, V domains shown)
VH: QLQLQESGPGLVKPSETLSLTCTVSGGSISSSSYAWGWIRQPPGKGLEWIGSIYYSGSTYYNPSLKSRVTISVDTSKNQFSLKLSSVTAADTAVYYCARKGMDDAGMDVWGQGTTVTVSS
VL: EIVLTQSPATLSLSPGERATLSCRASQSVSSYLAWYQQKPGQAPRLLIYDASNRATGIPARFSGSGSGTDFTLTISSLEPEDFAVYYCQQDSAWPFTFGGGTKVEIK
notes: IgG
B1: the binding result was “no binding (tested: 1 ug/ml)” in test [1], “no binding (tested: 100 nM)” with Mouse SIRPA D1 Fc and “no binding (tested: 100 nM)” with Human SIRPb D1 Fc. In addition, the “relative MFI” value in test [2] is 1.89 fold over background; in test [3], 0.464 fold over background.

B2: SA-6 (antibody, V domains shown)
VH: EVQLVESGGGLVQPGRSLRLSCAASGFTFDDYAMHWVRQAPGKGLEWVSGITWNSGSIGYADSVKGRFTISRDNAKNSLYLQMNSLRAEDTALYYCAKEGRYGSGITTTWGQGTLVTVSS
VL: EIVMTQSPATLSLSPGERATLSCRASQSVSSYLAWYQQKPGQAPRLLIYDSSNRATGIPARFSGSGSGTDFTLTISSLEPEDFAVYYCQQDANYPYTFGGGTKVEIK
notes: IgG
For B2, the binding result in test [1] is “no binding (tested: 1 ug/ml)”; with Mouse SIRPA D1 Fc it was “no binding (tested: 100 nM)”; with Human SIRPb D1 Fc it was “no binding (tested: 100 nM)”. Also, the “relative MFI” value turned out to be 3.13 fold over background in test [2] and 0.545 fold over background in test [3].

B3: SA-53 (antibody, V domains shown)
VH: QVQLQESGPGLVKPSQTLSLTCTVSGGSISSGGYYWSWIRQHPGKGLEWIGYIYYSGSTYYNPSLKSRVTISVDTSKNQFSLKLSSVTAADTAVYYCARGPLGAAGFDYWGQGTLVTVSS
VL: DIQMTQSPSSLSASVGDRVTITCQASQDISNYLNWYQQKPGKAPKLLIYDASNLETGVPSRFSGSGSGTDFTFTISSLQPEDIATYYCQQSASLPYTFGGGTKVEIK
notes: IgG
As for B3, the figures for the binding result (in test [1]; in the test with Mouse SIRPA D1 Fc; with Human SIRPb D1 Fc) were “no binding (tested: 1 ug/ml)”, “no binding (tested: 100 nM)” and “no binding (tested: 100 nM)”, respectively. The “relative MFI” value in test [2] worked out at 2.13 fold over background; in test [3], 0.726 fold over background.

B4: SA-7 (antibody, V domains shown)
VH: QVQLVESGGGVVQPGRSLRLSCAASGFTFSSYGMHWVRQAPGKGLEWVALIWYDGSNKYYADSVKGRFTISRDNSKNTLYLQMNSLRAEDTAVYYCAKEGSSYADGWPYGMDVWGQGTTVTVSS
VL: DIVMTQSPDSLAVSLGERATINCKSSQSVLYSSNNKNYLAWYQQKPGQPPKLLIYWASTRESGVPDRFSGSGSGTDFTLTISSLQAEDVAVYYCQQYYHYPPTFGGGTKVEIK
notes: IgG
Regarding B4, the binding result in test [1] is reported as “no binding (tested: 1 ug/ml)”; in the test with Mouse SIRPA D1 Fc, “no binding (tested: 100 nM)”; with Human SIRPb D1 Fc, “no binding (tested: 100 nM)”. The “relative MFI” value worked out at 0.708 fold over background in test [2] and 0.515 fold over background in test [3].

B5: SA-52 (antibody, V domains shown)
VH: QVQLVQSGAEVKKPGASVKVSCKASGYTFTNYGISWVRQAPGQGLEWMGWISAYNGNTNYAQKLQGRVTMTTDTSTSTAYMELRSLRSDDTAVYYCARGLWSEHIYWGQGTLVTVSS
VL: EIVMTQSPGTLSLSPGERATLSCRASQSVSSSYLAWYQQKPGQAPRLLIYGASNRATGIPDRFSGSGSGTDFTLTISRLEPEDFAVYYCQQYVDLPLTFGGGTKVEIK
notes: IgG
In the case of B5, the binding result in test [1] is on record as “no binding (tested: 1 ug/ml)”; in the test with Mouse SIRPA D1 Fc it was “no binding (tested: 100 nM)”; with Human SIRPb D1 Fc, “no binding (tested: 100 nM)”. Also, the results for the “relative MFI” value in test [2] and in test [3] were 1.9 fold over background and 0.557 fold over background, respectively.

B6: SA-13 (antibody, V domains shown)
VH: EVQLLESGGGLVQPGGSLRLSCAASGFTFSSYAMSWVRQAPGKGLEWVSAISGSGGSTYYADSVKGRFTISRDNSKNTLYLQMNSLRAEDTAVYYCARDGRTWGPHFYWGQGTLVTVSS
VL: DIQMTQSPSSLSASVGDRVTITCRASQSISSYLNWYQQKPGKAPKLLIYAASSLQSGVPSRFSGSGSGTDFTLTISSLQPEDFATYYCQQGYIYPPTFGGGTKVEIK
notes: IgG; also called SA-13 (parental)
In the case of B6, the binding result in test [1] was “no binding (tested: 1 ug/ml)”; with Mouse SIRPA D1 Fc, “no binding (tested: 100 nM)”. The results for the Kd (with Human SIRPb D1 Fc; in test [4]) were 19.6 nM and 12.3 nM, respectively. Moreover, the “relative MFI” value in test [2] was determined as 59.9 fold over background; in test [3] it was 0.571 fold over background.

B7: SA-13-69 (antibody, V domains shown)
VH: EVQLLESGGGLVQPGGSLRLSCAASGFTFTEYAMSWVRQAPGKGLEWVSAISGSGGSTYYADSVKARFTISRDNSKNTLYLQMNSLRAEDTAVYYCARDGTQWGPHFYWGQGTLVTVSS
VL: DIQMTQSPSSLSASVGDRVTITCRASQSISSYLNWYQQKPGKAPKLLIYAASSLQSGVPSRFSGSGSGTDFTLTISSLQPEDFATYYCQQGYIYPPTFGGGTKVEIK
notes: IgG
The molecule B7 showed a Kd in test [4] of 3.99 nM.

B8: SA-50 (antibody, V domains shown)
VH: EVQLVESGGGLVQPGGSLRLSCAASGFTFSSYSMNWVRQAPGKGLEWVSYISSSSSTIYYADSVKGRFTISRDNAKNSLYLQMNSLRAEDTAVYYCARGGGGYSYSPYIYGMDVWGQGTTVTVSS
VL: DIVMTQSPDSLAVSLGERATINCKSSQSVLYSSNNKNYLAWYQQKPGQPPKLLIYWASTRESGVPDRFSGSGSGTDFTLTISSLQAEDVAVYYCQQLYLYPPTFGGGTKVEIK
notes: IgG
On to B8, for which the binding result in test [1] was “no binding (tested: 1 ug/ml)”; in the test with Mouse SIRPA D1 Fc it was “no binding (tested: 100 nM)”; in the test with Human SIRPb D1 Fc, “no binding (tested: 100 nM)”. Besides, the “relative MFI” value was found to be 5.56 fold over background in test [2] and 0.518 fold over background in test [3].

B9: SA-48 (antibody, V domains shown)
VH: QVQLVESGGGVVQPGRSLRLSCAASGFTFSSYGMHWVRQAPGKGLEWVAVISYDGSNKYYADSVKGRFTISRDNSKNTLYLQMNSLRAEDTAVYYCARGAPIETLGVYYYGMDVWGQGTTVTVSS
VL: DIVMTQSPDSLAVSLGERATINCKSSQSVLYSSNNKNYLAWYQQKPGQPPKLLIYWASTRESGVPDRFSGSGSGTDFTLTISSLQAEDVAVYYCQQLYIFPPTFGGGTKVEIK
notes: IgG
For the molecule B9, the binding result is “no binding (tested: 1 ug/ml)” in test [1], “no binding (tested: 100 nM)” with Mouse SIRPA D1 Fc and “no binding (tested: 100 nM)” with Human SIRPb D1 Fc. For the same molecule, the “relative MFI” value in test [2] was 3.27 fold over background; in test [3], 0.545 fold over background.

B10: SA-45 (antibody, V domains shown)
VH: QVQLVQSGAEVKKPGASVKVSCKASGYTFTSYGISWVRQAPGQGLEWMGWISAYNGNTNYAQKLQGRVTMTTDTSTSTAYMELRSLRSDDTAVYYCARESGGTGAYGMDVWGQGTTVTVSS
VL: DIQMTQSPSSLSASVGDRVTITCRASQSVSSSYLAWYQQKPGQAPRLLIYGASSRATGIPDRFSGSGSGTDFTLTISRLEPEDFAVYYCQQYYDSITFGGGTKVEIK
notes: IgG
Turning to B10, the binding result is “no binding (tested: 1 ug/ml)” in test [1], “no binding (tested: 100 nM)” with Mouse SIRPA D1 Fc and “no binding (tested: 100 nM)” with Human SIRPb D1 Fc. Moreover, the figures for the “relative MFI” value in test [2] and in test [3] were 14.1 fold over background and 0.512 fold over background, respectively.

B11: SA-19-72 (antibody, V domains shown)
VH: QVQLVESGGGVVQPGRSLGLSCAASGFTFSSYAMHWVRQAPGKGLEWVAGILYDGSNKYYADSVKGRFTISRDNSKNTLYLQMNSLRAEDTAVYYCARSNEKYTLGFAFDIWGQGTMVTVSS
VL: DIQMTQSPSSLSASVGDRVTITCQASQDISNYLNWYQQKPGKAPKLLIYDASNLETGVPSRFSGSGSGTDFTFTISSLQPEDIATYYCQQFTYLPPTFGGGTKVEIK
notes: IgG
For B11, the Kd stood at 1.1 nM in test [5] and 4.75 nM in test [4].

B12: SA-19-74 (antibody, V domains shown)
VH: QVQLVESGGGVVQPGRSLRLSCAASGFAFSSYAMHWVRQAPGKGLEWVAGILYDGSNKYYADSVKGRFTISRDNSKNTLYLQMNSLRAEDTAVYYCARHSQKYTLGFAFDIWGQGTMVTVSS
VL: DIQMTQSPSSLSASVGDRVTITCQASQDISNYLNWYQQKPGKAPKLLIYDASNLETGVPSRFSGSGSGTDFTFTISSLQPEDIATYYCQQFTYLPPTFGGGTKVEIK
notes: IgG
In the case of B12, the results for the Kd in test [5] and in test [4] were 0.676 nM and 4.08 nM, respectively.

B13: SA-19-76 (antibody, V domains shown)
VH: QVQLVESGGGVVQPGRSLRLSCAASGFTFSSYGMHWVRQAPGKGLEWVAVIAYDGSNKLYADSVKGRFTISRDNAKNSLYLQMNSPRAEDTAVYYCATMRTKYTLGFAFDIWGQGTMVTVSS
VL: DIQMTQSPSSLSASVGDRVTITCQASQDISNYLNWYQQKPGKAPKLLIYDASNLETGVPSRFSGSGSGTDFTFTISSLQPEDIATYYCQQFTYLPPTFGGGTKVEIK
notes: IgG
Take B13: the figures for the Kd in test [5] and in test [4] were 0.504 nM and 2.05 nM, respectively.

B14: SA-19-77 (antibody, V domains shown)
VH: QVQLVESGGGVVQPGRSLRLSCAASGFTFSSYGMAWVRQAPGKGLEWVAQILYDGSNEYYADSVKGRFTISRDNSKNTLYLQMNSLRAEDTAVYYCARDLTKYTLGFAFDIWGQGTMVTVSS
VL: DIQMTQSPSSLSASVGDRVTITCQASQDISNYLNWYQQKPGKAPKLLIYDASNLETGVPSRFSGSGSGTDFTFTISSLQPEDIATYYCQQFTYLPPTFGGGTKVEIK
notes: IgG
As for B14, the Kd in test [5] amounted to 0.441 nM; in test [4] it was 3.94 nM.

B15: SA-19-78 (antibody, V domains shown)
VH: QVQLVESGGGVVQPGRSLRLSCAASGFTFSSYGMHWVRQAPGKGLEWVAVIAYDGSNKLYADSVKGRFTISRDNSKNTLYLQMDSLRAEDTAVYYCATSDTKYTLGFAFDIWGQGTMVTVSS
VL: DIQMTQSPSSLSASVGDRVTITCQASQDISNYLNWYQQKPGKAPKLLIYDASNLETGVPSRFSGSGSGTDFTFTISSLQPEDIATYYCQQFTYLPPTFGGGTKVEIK
notes: IgG
With B15, the Kd came to 1.06 nM in test [5] and 2.08 nM in test [4].

B16: SA-19-75 (antibody, V domains shown)
VH: QVQLVESGGGVVQPGRSLRLSCAASGFTFSSYGMHWVRQAPGKGLEWVAVIAYDGSNKLYADSVKGRFTISRDNSKNTLYLQMNSLRAEDTAVYYCALMRTKYTLGFAFDIWGQGTMVTVSS
VL: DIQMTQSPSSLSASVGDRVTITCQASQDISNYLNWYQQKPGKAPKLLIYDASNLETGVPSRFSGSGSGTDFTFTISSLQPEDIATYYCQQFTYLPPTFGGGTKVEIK
notes: IgG
For B16, the Kd in test [5] turned out to be 0.537 nM; in test [4], 3.13 nM.

B17: SA-19-73 (antibody, V domains shown)
VH: QVQLVESGGGLVQPGGSLRLSCAASGFTFSSYAMHWVRQAPGKGLEWVAGILYDGSNKYYADSVKGRFTISRDNSKNTLYLQMNSLRAEDTAVYYCANSDTKYTLGFAFDIWGQGTMVTVSS
VL: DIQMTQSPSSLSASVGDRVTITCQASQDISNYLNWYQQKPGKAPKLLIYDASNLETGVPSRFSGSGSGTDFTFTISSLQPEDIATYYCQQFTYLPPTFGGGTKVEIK
notes: IgG
On to B17, for which the values for the Kd in test [5] and in test [4] were 0.71 nM and 2.95 nM, respectively.
